For data set [1], the system named is SK-LC-13 cells. The data set is described as follows: FACS analysis of apoptosis by sub-G1 DNA content (propidium iodide). The format is cell-based, human. As for the experimental part:
Apoptosis was measured by FACS of propidium-iodide-stained cells as detailed by Riccardi et al (Riccardi and Nicoletti, Nat Protoc 1(3):1458-1461, 2006). Cells were plated in 24-well plates and treated with ADI-PEG 20 for […]. Cells were then harvested, washed and fixed in 70% ethanol. DNA was then stained using 20 μg ml^−1 propidium iodide containing 10 μgml^−1 DNAse-free RNAse A (Sigma-Aldrich). Cells were then read on a BD FACSCalibur (BD Biosciences) and analyzed using Flow Jo Software (Tree Star, Ashland, Oreg., USA).
In order to determine the possible mechanism of the antiproliferative effects of ADI-PEG 20 a FACS analysis of apoptosis by sub-G1 DNA content was performed. Cells were treated for 72 h before the analysis was performed.
(Flow cytometry measures light scatter and fluorescence of single cells or particles in a stream.)

Data set [2] deals with ASS-positive control lines, Fujioka and U937. The data set is described as follows: Viability of AML cell lines treated with ADI-PEG 20. The format is cell-based. Here is the method: (§1) In this example, it was determined whether ASS negativity would predict for the efficacy of pegylated arginine deiminase (ADI-PEG 20) using AML cell lines and primary AML samples. A lack of ASS protein was identified in three of seven leukemic cell lines (K562, Kasumi and KG-1) and in all nine samples from patients with cytogenetically normal and abnormal karotype AML. Methylation of the ASS promoter correlated with reduced levels of ASS mRNA and absence of ASS expression.
(§2) Primary ASS-negative AML samples with good engraftment in NOD/SCID mice have been identified and studies of the efficacy of ADI-PEG 20 using this primary AML xenograft model have begun. Based on the results described herein and the potential efficacy with low toxicity of arginine deprivation in humans, a phase II trial of ADI-PEG 20 has been planned in patients with relapsed AML.

Data set [3] relates to ASS-negative AML lines. Described as above. In kind it is cell-based. Here is the method:
as §1, §2

In data set [4] the test system is Caki-1 xenografts. The data set is described as follows: Caki-1 renal cell carcinoma xenografts in BALB/c-nude mice. In kind it is in vivo. The settings on record: intramuscular. Here is the method:
The activity of ADI-PEG 20 was assessed in mice bearing Caki-1 (ATCC No. HTB-46™) xenografts. Renal cell carcinoma Caki-1 xenografts were established in female BALB/c-nude mice, 3-4 weeks of age with a body weight of 20 g (SLAC, Shanghai, China). To establish the tumors, 5×10^6 cells in media were mixed 1:1 with Matrigel High Concentration (BD Biosciences) and injected subcutaneously in the abdominal area of the mice. Tumor growth was regularly measured and tumor volume calculated using the formula (TV=(length×width^2)/2). When tumors reached an approximate volume of 125 mm^3, ADI-PEG20 was administered at doses level of 160, 320 and 640 IU/m^2 once every week for four weeks by intramuscular injection. Each study group had 9 mice. Mice were euthanized when tumors reached an approximate volume of 1100 mm^3. […] More than 80% tumor inhibition was achieved when 640 IU/m^2 was used.
In an additional experiment, the activity of ADI-PEG 20 as either a single agent or in combination with rapamycin was assessed in mice bearing Caki-1 xenograft. Renal cell carcinoma xenografts were established in female BALB/c-nude mice, 3-4 weeks of age weighing about 20 g (SLAC, Shanghai, China). […] Tumor growth was regularly measured and tumor volume calculated using the formula (TV=(length×width^2)/2). […]

Data set [5] in a line: Serum ADI-PEG 20 levels by ELISA. The format is in vivo, mice. As for the experimental part:
In order to determine the effect of ADI-PEG 20 treatment on systemic arginine levels, mice sera were analyzed using high-performance liquid chromatography (HPLC). L-arginine and L-citrulline were resolved with a Pickering Laboratories PCX 5200 post-column derivatization instrument (Pickering Laboratories, Mountain View, Calif., USA) at 39° C. reaction temperature and a fluorescence detector. […] Total ADI-PEG 20 levels were measured by ELISA, as described previously (Holtsberg et al, J Control Release 80(1-3):259-271, 2002).
(In an ELISA, binding on a coated surface is turned into a signal by an enzyme label.)

B1: ADI-PEG 20: arginine deiminase (ADI) formulated with PEG of 20,000 m.w. (protein)
chain: MSVFDSKFNGIHVYSEIGELETVLVHEPGREIDYITPARLDELLFSAILESHDARKEHQSFVKIMKDRGINVVELTDLVAETYDLASKAAKEEFIETFLEETVPVLTEANKEAVRAFLLSKPTHEMVEFMMSGITKYELGVESENELIVDPMPNLYFTRDPFASVGNGVTIHFMRYIVRRRETLFARFVFRNHPKLVKTPWYYDPAMKMSIEGGDVFIYNNETLVVGVSERTDLDTITLLAKNIKANKEVEFKRIVAINVPKWTNLMHLDTWLTMLDKNKFLYSPIANDVFKFWDYDLVNGGAEPQPQLNGLPLDKLLASIINKEPVLIPIGGAGATEMEIARETNFDGTNYLAIKPGLVIGYDRNEKTNAALKAAGITVLPFHGNQLSLGMGNARCMSMPLSRKDVKW
For B1, the “cells in apoptosis (sub-G1 DNA content)” value in data set [1] (1.0 mIU ml^−1, 72 h) is on record as approximately 6%; in data set [1] (10 mIU ml^−1, 72 h), approximately 16%. In addition, the “viability (response to drug-induced arginine deprivation)” value in data set [2] was “resistant”. Further, in data set [3], the viability entry was “reduced the viability”. The tumor growth result in data set [4] (160, 320 and 640 IU/m^2 weekly for four weeks) is reported as “inhibited tumor growth in a dose dependent manner”. In addition, the tumor inhibition result in data set [4] (640 IU/m^2 weekly for four weeks) was “More than 80%”. Moreover, the “ADI-PEG 20 serum levels after end of dosing” value in data set [5] (administered only up to day 20) is “return to baseline levels by day 40”. Moreover, in data set [5] (days 0, 12, 40, 1, 2, 5 IU), the “ADI-PEG 20 serum levels” value is “dose dependent”.

These data come from patent US9333268B2, “Methods of treatment with arginine deiminase” (Polaris Group, priority 2012, dated 2016).
